These results are taken from publication PMC7954794, “Protein context shapes the specificity of SH3 domain-mediated interactions in vivo” (Nature Communications, 2021).

Format in all cases: cell-based, Saccharomyces cerevisiae
For one experiment, the system named is BZZ1-1. As to the kind of experiment: DHFR-PCA on solid medium, bait BZZ1-1 (Fig. 1B). Particulars: bait BZZ1-1, label = prey; 4 replicates. The source says:
Supplement 41467_2021_21873_MOESM8_ESM.xlsx, sheet "Fig1B" | column: medsize; medrep; Score

The next experiment relates to BBC1. Nature of the experiment: DHFR-PCA on solid medium, bait BBC1 (Fig. 1B). Particulars: bait BBC1, label = prey. The source says:
(§1) Supplement 41467_2021_21873_MOESM8_ESM.xlsx, sheet "Fig1B" | column: medsize; medrep; Ratio; Score

The subject of the next experiment is ABP1. Nature of the experiment: DHFR-PCA on solid medium, bait ABP1 (Fig. 1B). The note with it: bait ABP1, label = prey; 2-4 replicates.
Text: as §1

The next experiment concerns Hua2. Nature of the experiment: Deep mutational scanning of Abp1 SH3, Abp1-Hua2 DHFR-PCA (DMS score). The note with it: Abp1-Hua2 DHFR-PCA, MTX2. The essentials: (§2)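 Yeast, genomic ABP1 SH3 single-codon mutant pool (58 positions, NNN) × DHFR F[3] prey; diploid selection, then 2 cycles PCA selection medium, 72 h, 30 °C each. Readout: Illumina sequencing of SH3 locus vs. unselected diploid reference (S2). Biological duplicates.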

In another experiment the test system is Hua2 and Lsb3. Nature of the experiment: Classification of Abp1 SH3 mutants by DMS scores with Hua2 and Lsb3 (quadrant). Particulars: class by DMS scores with Hua2 and Lsb3 (Dest. both, Dest. Hua2, Dest. Lsb3, Neutral).
In a further experiment the test system is Lsb3. As to the kind of experiment: Deep mutational scanning of Abp1 SH3, Abp1-Lsb3 DHFR-PCA (DMS score). Particulars: Abp1-Lsb3 DHFR-PCA, MTX2. In outline:
as §2

B1: YHR114W (protein, UniProt P38822 1-633, looked up)
Protein BZZ1: MSADLSIGNEIKDSFKETHKWVQNNLKWLKDIEQFYRERAKLEKDYSERLSRLSAEYFNKKSSTSVPISVGDTPTTTPGSIEAAGVVAWNEILSQTDMISKDHDQLSTDFENHVANQLSGLFTKLDMTLSKINGFNNDMVNKKDNIYHELEKAKKDYDEACSTMEMARNRYTKASNDRNKKKLDEKEMEMNKCKNEYLIKINQANRTKDKYYFQDVPEVLDLLQDVNEAKTLFLNDLWLKAASVENDLGANVSKRLQAANSVVKQNKPSLNTAIFIKHNLKNWKEPQDFVYKPSPVWHDDEKFAVPSSLEVEDLRIKLAKAENDYNSLQDKTQNELSKLSTLNKIKHEMKTNEDNINATKFYDTLKEYLNVVSPFTSHETLKLQAEVQIESIQNNVPEEYDLSTDNIDLSKTKKKSGIFSKFKHNILNVDSKPSSGGSTGNGNGGPLHITSLFNTSRRTRLGSAPNNAGEDSDNNSIRTTSTNNTKKTTQNSSDDGKNKVLYAYVQKDDDEITITPGDKISLVARDTGSGWTKINNDTTGETGLVPTTYIRISSAATVKANDRGPAPEVPPPRRSTLPVRTMEAIYAYEAQGDDEISIDPGDIITVIRGDDGSGWTYGECDGLKGLFPTSYCK
For B1, the “medrep (log2 median colony size normalized to plate background, PCA score)” value turned out to be 4.137 with BZZ1-1, 1.475 in the experiment with BBC1 (2-4 replicates) and 3.834 in the experiment with ABP1. Also, the “Ratio (SH3-deleted/WT medrep)” value in the experiment on BBC1 (only significant differences showed, PPIs completely lost have a ratio of 0.1 and the gained PPIs 2.5) came out at 0.1.

B2: ABP1 V31V (protein, UniProt P15891 2-592, looked up)
Actin-binding protein: ALEPIDYTTHSREIDAEYLKIVRGSDPDTTWLIISPNAKKEYEPESTGSSFHDFLQLFDETKVQYGLARVSPPGSDVEKIIIIGWCPDSAPLKTRASFAANFAAVANNLFKGYHVQVTARDEDDLDENELLMKISNAAGARYSIQTSSKQQGKASTPPVKKSFTPSKSPAPVSKKEPVKTPSPAPAAKISSRVNDNNDDDDWNEPELKERDFDQAPLKPNQSSYKPIGKIDLQKVIAEEKAKEDPRLVQKPTAAGSKIDPSSDIANLKNESKLKRDSEFNSFLGTTKPPSMTESSLKNDDDKVIKGFRNEKSPAQLWAERKAKQNSGNAETKAEAPKPEVPEDEPEGEPDVKDLKSKFEGLAASEKEEEEMENKFAPPPKKSEPTIISPKPFSKPQEPVKAEEAEQPKTDYKKIGNPLPGMHIEADNEEEPEENDDDWDDDEDEAAQPPLPSRNVASGAPVQKEEPEQEEIAPSLPSRNSIPAPKQEEAPEQAPEEEIEEEAEEAAPQLPSRSSAAPPPPPRRATPEKKPKENPWATAEYDYDAAEDNELTFVENDKIINIEFVDDDWWLGELEKDGSKGLFPSNYVSLGN
modifications: synonymous codon change V31
In the case of B2, in the experiment with Hua2, the “hua2sc (frequencies scaled to the synonymous mutation distribution, DMS score)” value (from here on “hua2sc”) is on record as -0.7307 and the “HUA2_MTX2 (frequencies normalized to the reference condition)” value stood at 0.882. Moreover, the quadrant entry with Hua2 and Lsb3 is “Neutral”. Further, in the experiment with Lsb3, the “lsb3sc (frequencies scaled to the synonymous mutation distribution, DMS score)” value (from here on “lsb3sc”) is given as -0.4906 and the “LSB3_MTX2 (frequencies normalized to the reference condition)” value is 1.01.

B3: ABP1 D32D (protein, UniProt P15891 2-592, looked up)
Actin-binding protein: ALEPIDYTTHSREIDAEYLKIVRGSDPDTTWLIISPNAKKEYEPESTGSSFHDFLQLFDETKVQYGLARVSPPGSDVEKIIIIGWCPDSAPLKTRASFAANFAAVANNLFKGYHVQVTARDEDDLDENELLMKISNAAGARYSIQTSSKQQGKASTPPVKKSFTPSKSPAPVSKKEPVKTPSPAPAAKISSRVNDNNDDDDWNEPELKERDFDQAPLKPNQSSYKPIGKIDLQKVIAEEKAKEDPRLVQKPTAAGSKIDPSSDIANLKNESKLKRDSEFNSFLGTTKPPSMTESSLKNDDDKVIKGFRNEKSPAQLWAERKAKQNSGNAETKAEAPKPEVPEDEPEGEPDVKDLKSKFEGLAASEKEEEEMENKFAPPPKKSEPTIISPKPFSKPQEPVKAEEAEQPKTDYKKIGNPLPGMHIEADNEEEPEENDDDWDDDEDEAAQPPLPSRNVASGAPVQKEEPEQEEIAPSLPSRNSIPAPKQEEAPEQAPEEEIEEEAEEAAPQLPSRSSAAPPPPPRRATPEKKPKENPWATAEYDYDAAEDNELTFVENDKIINIEFVDDDWWLGELEKDGSKGLFPSNYVSLGN
modifications: synonymous D32D codon change
With B3, in the experiment with Hua2, the “hua2sc” value was -0.3604 and the “HUA2_MTX2 (frequencies normalized to the reference condition)” value was found to be 1.252. In the experiment with Hua2 and Lsb3, the quadrant entry is recorded as “Neutral”. Further, in the experiment on Lsb3, the “lsb3sc” value was -0.4014 and the “LSB3_MTX2 (frequencies normalized to the reference condition)” value is 1.099.

B4: ABP1 D33D (protein, UniProt P15891 2-592, looked up)
Actin-binding protein: ALEPIDYTTHSREIDAEYLKIVRGSDPDTTWLIISPNAKKEYEPESTGSSFHDFLQLFDETKVQYGLARVSPPGSDVEKIIIIGWCPDSAPLKTRASFAANFAAVANNLFKGYHVQVTARDEDDLDENELLMKISNAAGARYSIQTSSKQQGKASTPPVKKSFTPSKSPAPVSKKEPVKTPSPAPAAKISSRVNDNNDDDDWNEPELKERDFDQAPLKPNQSSYKPIGKIDLQKVIAEEKAKEDPRLVQKPTAAGSKIDPSSDIANLKNESKLKRDSEFNSFLGTTKPPSMTESSLKNDDDKVIKGFRNEKSPAQLWAERKAKQNSGNAETKAEAPKPEVPEDEPEGEPDVKDLKSKFEGLAASEKEEEEMENKFAPPPKKSEPTIISPKPFSKPQEPVKAEEAEQPKTDYKKIGNPLPGMHIEADNEEEPEENDDDWDDDEDEAAQPPLPSRNVASGAPVQKEEPEQEEIAPSLPSRNSIPAPKQEEAPEQAPEEEIEEEAEEAAPQLPSRSSAAPPPPPRRATPEKKPKENPWATAEYDYDAAEDNELTFVENDKIINIEFVDDDWWLGELEKDGSKGLFPSNYVSLGN
modifications: synonymous D33D codon change
For B4, in the experiment on Hua2, the “hua2sc” value amounted to 0.4122 and the “HUA2_MTX2 (frequencies normalized to the reference condition)” value is given as 2.025. The quadrant entry with Hua2 and Lsb3 is “Neutral”. Also, in the experiment with Lsb3, the “lsb3sc” value is listed as 0.1943 and the “LSB3_MTX2 (frequencies normalized to the reference condition)” value is 1.695.

B5: ABP1 D34D (protein, UniProt P15891 2-592, looked up)
Actin-binding protein: ALEPIDYTTHSREIDAEYLKIVRGSDPDTTWLIISPNAKKEYEPESTGSSFHDFLQLFDETKVQYGLARVSPPGSDVEKIIIIGWCPDSAPLKTRASFAANFAAVANNLFKGYHVQVTARDEDDLDENELLMKISNAAGARYSIQTSSKQQGKASTPPVKKSFTPSKSPAPVSKKEPVKTPSPAPAAKISSRVNDNNDDDDWNEPELKERDFDQAPLKPNQSSYKPIGKIDLQKVIAEEKAKEDPRLVQKPTAAGSKIDPSSDIANLKNESKLKRDSEFNSFLGTTKPPSMTESSLKNDDDKVIKGFRNEKSPAQLWAERKAKQNSGNAETKAEAPKPEVPEDEPEGEPDVKDLKSKFEGLAASEKEEEEMENKFAPPPKKSEPTIISPKPFSKPQEPVKAEEAEQPKTDYKKIGNPLPGMHIEADNEEEPEENDDDWDDDEDEAAQPPLPSRNVASGAPVQKEEPEQEEIAPSLPSRNSIPAPKQEEAPEQAPEEEIEEEAEEAAPQLPSRSSAAPPPPPRRATPEKKPKENPWATAEYDYDAAEDNELTFVENDKIINIEFVDDDWWLGELEKDGSKGLFPSNYVSLGN
modifications: synonymous codon change D34D
B5: in the experiment with Hua2, the “hua2sc” value was -0.3883 and the “HUA2_MTX2 (frequencies normalized to the reference condition)” value came to 1.224. The quadrant entry with Hua2 and Lsb3 was “Neutral”. For the same molecule, in the experiment with Lsb3, the “lsb3sc” value was -0.3576 and the “LSB3_MTX2 (frequencies normalized to the reference condition)” value worked out at 1.143.
